Measurements published in paper PMC7763485, “Quantifying the Monomer–Dimer Equilibrium of Tubulin with Mass Photometry” (Journal of Molecular Biology, 2020).

Molecular target: β-tubulin (porcine, UniProt P02554 1-445)
Assay: mass photometry; label-free, in free solution; tubulin diluted in BRB80 buffer to 1 to 60 nM total monomer, no added GTP; 20 min equilibration after dilution (also measured immediately after dilution); Kd computed from counts of monomers and dimers in each single distribution; heterodimer to monomers
Details: both partners purified

Sequence of β-tubulin (P02554 whole entry): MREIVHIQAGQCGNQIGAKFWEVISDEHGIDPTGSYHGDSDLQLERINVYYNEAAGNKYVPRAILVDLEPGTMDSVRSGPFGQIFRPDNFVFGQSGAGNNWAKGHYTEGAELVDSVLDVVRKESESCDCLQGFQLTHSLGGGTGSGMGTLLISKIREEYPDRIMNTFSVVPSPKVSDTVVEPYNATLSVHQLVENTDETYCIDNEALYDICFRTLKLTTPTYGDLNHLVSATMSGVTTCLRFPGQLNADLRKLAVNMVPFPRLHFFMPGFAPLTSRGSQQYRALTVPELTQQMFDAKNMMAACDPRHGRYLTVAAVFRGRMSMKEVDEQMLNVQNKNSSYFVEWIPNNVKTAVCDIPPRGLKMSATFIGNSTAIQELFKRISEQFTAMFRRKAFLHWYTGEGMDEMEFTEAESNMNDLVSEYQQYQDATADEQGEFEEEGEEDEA

B1: α-tubulin (natural protein)
chain: MRECISIHVGQAGVQIGNACWELYCLEHGIQPDGQMPSDKTIGGGDDSFNTFFSETGAGKHVPRAVFVDLEPTVIDEVRTGTYRQLFHPEQLITGKEDAANNYARGHYTIGKEIIDLVLDRIRKLADQCTGLQGFSVFHSFGGGTGSGFTSLLMERLSVDYGKKSKLEFSIYPAPQVSTAVVEPYNSILTTHTTLEHSDCAFMVDNEAIYDICRRNLDIERPTYTNLNRLIGQIVSSITASLRFDGALNVDLTEFQTNLVPYPRAHFPLATYAPVISAEKAYHEQLSVAEITNACFEPANQMVKCDPRHGKYMACCLLYRGDVVPKDVNAAIATIKTKRTIQFVDWCPTGFKVGINYEPPTVVPGGDLAKVQRAVCMLSNTTAIAEAWARLDHKFDLMYAKRAFVHWYVGEGMEEGEFSEAREDMAALEKDYEEVGVDSVEGEGEEEGEEY
modifications: Brain-purified isotype mixture, isotype not named; TUBA1A taken as representative by convention. Native brain PTMs are likely but not specified. GTP at the non-exchangeable site as purified; the …
Q: How did the “dimer:monomer ratio at 60 nM total tubulin” value turn out when B1 was run?
A: ~2
